Measurements reported in the supplement of paper PMC10567573.

B1: MLL5 (parent)
chain: TYLCERCQPRNLDKERAVLLQRRK

Variants of: B1
Experiment: protein stability index of a GFP-peptide fusion (GPS, HEK-293T) (PSI 1-6); higher = more stable
Conditions: c terminus: a fixed tail appended
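Note: lentivirally expressed fusions sorted by FACS into six bins by GFP to DsRed ratio, PSI derived from sequencing read proportions per bin multiplied by bin number.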

Protein stability index of substitutions, site by site:
L3: F 1.82; M 2.02; H 2.44; A 2.33; P 2.31; S 2.18; N 3.55; E 3; R 2.16; Q 2.42; D 2.99; G 2.85; I 1.55; K 2.83; V 2.17; T 1.98; W 1.96; Y 2.56; C 1.45
E5: A 1.91; K 1.79; S 2.23; D 2.87; I 2.47; V 3.05; T 1.61; Q 1.76; C 1.63; G 2.28; F 1.94; H 2.12; L 1.73; W 2.4; N 1.94
Q8: P 3.38; L 1.93; E 2.42; S 1.14; D 2.8; G 2.36; Y 1.5; R 2.44; N 1.55; C 1.38; A 2.74; I 1.79; K 2.05; V 1.9; F 2.29; T 2.72; M 1.67; W 4.94
A17: M 2.58; D 2.25; Y 2.18; C 2.08; Q 1.88; V 2.42; W 2.16; P 1.77; K 2.26; F 2.07; G 1.78; N 2.65; L 1.45; H 2; S 2.32; T 1.95
N11: D 2.02; M 2.04; F 1.9; K 2.05; W 2.09; H 2.82; E 1.52; G 2.42; Q 2.41; Y 1.43; S 2.32; I 1.68; R 2.15; L 2.12; C 2.11; T 3.08; A 2.05; P 2.18
R22: D 2.2; G 1.98; C 2.08; E 1.76; H 2.28; A 2
E15: T 2.32; L 2.05; N 1.6; F 2.14; Q 2.24; S 2.46; W 1.94; G 2.71; R 2.34; D 2.42; I 2.2; C 1.45; H 2.71; P 2.12; K 3.21
D13: M 2; Y 2.48; I 2.23; S 2.76; A 2.7; V 1.88; K 2.71; G 2.71; H 2.64; E 3.13; N 2.47; Q 2.53; C 2.24; W 2.16; P 1.92; F 1.78
L20: W 2.31; T 1.58; P 2.08; M 2.4; A 2.37; S 1.9; N 2.68; E 2.7; Y 1.76; G 2.52; C 2.3; H 2.23; D 3.55; F 2.3
L12: T 2.63; C 1.85; W 1.61; D 2.01; K 2.96; V 2.22; N 2.25; G 2.71; R 2.02; M 3.49; H 1.98; Y 1.71; A 2.56; Q 3.79; F 2.11; I 2.17; E 3.2; P 2.69
R10: P 2.67; W 1.66; Q 2.48; N 2.84; L 1.83; A 2.28; T 2.29; C 2.54; I 2.25; D 2.25; S 2.44; E 1.99; G 3.56; H 1.72; M 2.25; V 2.17; K 1.74; Y 2.04; F 2.28
Q21: V 1.84; R 2.51; D 2.78; T 1.81; G 2.91; I 1.73; N 2.42; K 2.64; M 2.46; S 1.99; H 3.22; Y 2.04; E 2.09; C 2.02
C7: D 4.49; M 3.2; G 3.59; T 4.37; E 4.89; V 3.32; I 3.76; S 4.63; F 3.27; K 3.34; N 3.93; L 3.12; P 3.94; W 3.6; Q 3.65; R 4.03; H 3.12; A 4.59
Y2: T 2.41; R 2.88; V 2.16; W 2.76; Q 3.53
L19: Q 2.54; A 1.76; P 1.85; N 2.08; T 2.07; Y 2.83; R 2.52; V 1.96; M 2.71; W 1.93; H 2.54; S 2.9; K 2.18; E 2.76; G 3.37; F 1.7; D 2.42; C 2.03
P9: I 1.91; S 2.27; E 3.09; T 2.81; C 2.76; L 2.69; H 1.97; A 1.86; Y 3.52; M 2.08; G 2.68; V 2.36; N 3.62; D 2.32; F 2.15; Q 3.16; R 2.35
K14: Q 2.23; M 3.36; R 2.19; H 1.74; N 2.29; F 2.34; W 2.89; T 3.29; C 1.93; I 1.87; D 1.98; V 3.34; G 1.77; Y 2.64; A 2.29; L 3.62; P 1.96; S 2.51
C4: L 2.71; S 3.95; R 3.67; K 3.15; M 3.52; P 4.26; Q 3.56; F 2.61; V 3.12; G 3.83; D 4.22; I 1.54; N 3.9; W 2.6; E 4.31; H 3.36; T 4.07; A 4.43
R6: L 1.49; K 1.59; F 1.79; S 2.83; N 2.81; P 3.84; W 1.53; E 3.87; V 2.42; Q 2.53; T 1.92; I 2.07; H 1.87; C 2.2; M 1.81; Y 2.83; D 2.93; G 4.25
R16: N 2.01; H 2.61; S 1.36; K 2.1; G 2.32; Y 1.79; V 2.27; P 2.24; C 1.45; W 1.69; L 3.06; M 3.23; T 2.25; F 2.09; I 1.94; A 2.49; E 1.92
V18: E 2.52; S 2.21; Q 2.19; H 2.16; C 2.11; T 2.82; F 1.96; R 3.18; N 1.93; I 2.68; P 1.6; A 1.81; M 2.19; W 2.2; Y 1.65; L 3.05; D 2.73
